Patent US20100260763A1 (DOMANTIS, published 2010)

Columns and labels:
[1] = target: T1, human TNFR1, soluble recombinant protein (human, UniProt P19438 22-211, limits assumed, biotinylated in the BIAcore assays (coupling via primary amines)); experiment: phage ELISA, plate coated with 1 nM TNFR1, anti-M13-HRP; trypsin 0 µg/ml; phage input 4.51E+10
T1 construct: also called biotinylated TNFR1; human recombinant E. coli-expressed human TNFR1
T1 sequence (looked up): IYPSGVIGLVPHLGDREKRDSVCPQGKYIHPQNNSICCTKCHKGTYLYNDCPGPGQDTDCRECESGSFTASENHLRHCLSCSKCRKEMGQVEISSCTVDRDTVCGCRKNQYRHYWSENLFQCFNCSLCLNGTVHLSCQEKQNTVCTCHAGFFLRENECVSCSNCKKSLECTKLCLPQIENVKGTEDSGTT

[2] = target: T1, human TNFR1, soluble recombinant protein; experiment: phage ELISA, plate coated with 1 nM TNFR1, anti-M13-HRP; trypsin 100 µg/ml 1 h room temp; phage input 7.05E+08
[3] = target: T1, human TNFR1, soluble recombinant protein; experiment: phage ELISA, plate coated with 1 nM TNFR1, anti-M13-HRP; trypsin 100 µg/ml 1 h room temp; phage input 2.82E+09
[4] = target: T1, human TNFR1, soluble recombinant protein; experiment: phage ELISA, plate coated with 1 nM TNFR1, anti-M13-HRP; trypsin 0 µg/ml; phage input 3.52E+08
[5] = target: T1, human TNFR1, soluble recombinant protein; experiment: phage ELISA, plate coated with 1 nM TNFR1, anti-M13-HRP; trypsin 10 µg/ml 1 h room temp; phage input 3.52E+08
[6] = target: T1, human TNFR1, soluble recombinant protein; experiment: phage ELISA, plate coated with 1 nM TNFR1, anti-M13-HRP; trypsin 1 mg/ml 1 h room temp; phage input 2.26E+10
[7] = target: T1, human TNFR1, soluble recombinant protein; experiment: phage ELISA, plate coated with 1 nM TNFR1, anti-M13-HRP; trypsin 10 µg/ml 1 h room temp; phage input 2.82E+09
[8] = target: T1, human TNFR1, soluble recombinant protein; experiment: phage ELISA, plate coated with 1 nM TNFR1, anti-M13-HRP; trypsin 0 µg/ml; phage input 1.13E+10
[9] = target: T1, human TNFR1, soluble recombinant protein; experiment: phage ELISA, plate coated with 1 nM TNFR1, anti-M13-HRP; trypsin 10 µg/ml 1 h room temp; phage input 4.51E+10
[10] = target: T1, human TNFR1, soluble recombinant protein; experiment: phage ELISA, plate coated with 1 nM TNFR1, anti-M13-HRP; trypsin 1 mg/ml 1 h room temp; phage input 3.52E+08
[11] = target: T1, human TNFR1, soluble recombinant protein; experiment: phage ELISA, plate coated with 1 nM TNFR1, anti-M13-HRP; trypsin 10 µg/ml 1 h room temp; phage input 2.26E+10
[12] = target: T1, human TNFR1, soluble recombinant protein; experiment: phage ELISA, plate coated with 1 nM TNFR1, anti-M13-HRP; trypsin 10 µg/ml 1 h room temp; phage input 1.13E+10
[13] = target: T1, human TNFR1, soluble recombinant protein; experiment: phage ELISA, plate coated with 1 nM TNFR1, anti-M13-HRP; trypsin 100 µg/ml 1 h room temp; phage input 1.41E+09
[14] = target: T1, human TNFR1, soluble recombinant protein; experiment: phage ELISA, plate coated with 1 nM TNFR1, anti-M13-HRP; trypsin 0 µg/ml; phage input 7.05E+08
[15] = target: T1, human TNFR1, soluble recombinant protein; experiment: phage ELISA, plate coated with 1 nM TNFR1, anti-M13-HRP; trypsin 100 µg/ml 1 h room temp; phage input 1.13E+10
[16] = target: T1, human TNFR1, soluble recombinant protein; experiment: phage ELISA, plate coated with 1 nM TNFR1, anti-M13-HRP; trypsin 100 µg/ml 1 h room temp; phage input 3.52E+08
[17] = target: T1, human TNFR1, soluble recombinant protein; experiment: phage ELISA, plate coated with 1 nM TNFR1, anti-M13-HRP; trypsin 0 µg/ml; phage input 1.41E+09
[18] = target: T1, human TNFR1, soluble recombinant protein; experiment: phage ELISA, plate coated with 1 nM TNFR1, anti-M13-HRP; trypsin 1 mg/ml 1 h room temp; phage input 1.41E+09
[19] = target: T1, human TNFR1, soluble recombinant protein; experiment: phage ELISA, plate coated with 1 nM TNFR1, anti-M13-HRP; trypsin 100 µg/ml 1 h room temp; phage input 4.51E+10
[20] = target: T1, human TNFR1, soluble recombinant protein; experiment: phage ELISA, plate coated with 1 nM TNFR1, anti-M13-HRP; trypsin 1 mg/ml 1 h room temp; phage input 5.64E+09

Work on DOM1h-131 displayed on phage yielded a phage ELISA read-out [1] of 0.916, a phage ELISA read-out [2] of 0.084 and a phage ELISA read-out [3] of 0.141. The phage ELISA read-out [4] was 0.577, the phage ELISA read-out [5] was 0.213 and the phage ELISA read-out [6] was 0.229. It also gave a phage ELISA read-out [7] of 0.573, a phage ELISA read-out [8] of 0.949 and a phage ELISA read-out [9] of 0.784. For the same substance, the phage ELISA read-out [10] was 0.08, the phage ELISA read-out [11] was 0.802 and the phage ELISA read-out [12] was 0.86. The phage ELISA read-out [13] was 0.115, the phage ELISA read-out [14] was 0.705 and the phage ELISA read-out [15] was 0.284. It also gave a phage ELISA read-out [16] of 0.084, a phage ELISA read-out [17] of 0.85 and a phage ELISA read-out [18] of 0.089. For the same substance, the phage ELISA read-out [19] was 0.418 and the phage ELISA read-out [20] was 0.133.
